Results on one molecule are retold here after article PMC6180065, “Deciphering molecular details in the assembly of alpha-type carboxysome” (Scientific Reports, 2018).

For the assay, the target named is T1, MBP tagged CbbL(1–136) (Halothiobacillus neapolitan (ATCC 23641), UniProt O85040 1-136).
T1 construct: Residues 1-136 (N domain) of RuBisCO large subunit CbbL of Halothiobacillus neapolitan (ATCC 23641); The coat of the ELISA; also called CbbL(N)
T1 sequence (looked up): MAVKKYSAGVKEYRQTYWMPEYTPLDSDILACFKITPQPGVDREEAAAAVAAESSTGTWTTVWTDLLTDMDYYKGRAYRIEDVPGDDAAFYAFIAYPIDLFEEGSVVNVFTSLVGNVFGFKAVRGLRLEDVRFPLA
Put plainly: ELISA; semi-quantitative; MaxiSorp plates coated with MBP-tagged CbbL(1–136) (30 nM in 0.1 M Na2CO3 pH 9.6, 4 °C, 12 h); CsoS1C-6xHis 5 nM to 5 μM in blocking buffer (1 mM CaCl2, 1% BSA in TBS), 1 h at room temperature; detected by 6xHis tag antibody and anti-mouse IgG-HRP; Hill equation fit; apparent Kd. The settings on record: both partners purified. A general note: An ELISA detects its analyte on a solid surface through an enzyme-linked reagent.

B1: CsoS1C-6xHis (natural protein, Halothiobacillus neapolitan (ATCC 23641))
chain: MAAVTGIALGMIETRGLVPAIEAADAMTKAAEVRLVGRQFVGGGYVTVLVRGETGAVNAAVRAGADACERVGDGLVAAHIIARVHSEVENILPKAPEA
notes: Carboxysome shell protein CsoS1C of Halothiobacillus neapolitan (ATCC 23641); printed length 98 a.a; not measured in the assay
Regarding B1, the Kd was found to be 120 ± 4.6 nM.
